Laboratory results from the Immune Epitope Database (IEDB).

What was measured:
Experiment in all cases: IEDB peptide-MHC binding, purified MHC/competitive/radioactivity; filed as Kd, often an IC50 or EC50 that approximates it; ≥ and ≤ were set here for values at or beyond the usual limits of such assays
[1] = molecular target: HLA-A*11:01
[2] = molecular target: HLA-A*03:01
[3] = molecular target: HLA-A*31:01
[4] = molecular target: HLA-A*33:01
[5] = molecular target: HLA-A*68:01
[6] = source organism: Dengue virus 2 Jamaica/1409/1983
[7] = source organism: Vaccinia virus WR
[8] = source organism: Dengue virus 1 Brazil/97-11/1997
[9] = source organism: Dengue virus 3 Martinique/1243/1999
[10] = source organism: Dengue virus 4 Philippines/H241/1956
[11] = source organism: SARS coronavirus Tor2

ATMLDVDLR
Kd ([1]; source organism: Dengue virus 1 Singapore/S275/1990): 41.5 nM

HMIVGRQEK
Kd [2, 6]: 66.6 nM

AAKYVEHDPR
Kd [2, 7]: ≥ 31000 nM | Kd [1, 7]: ≥ 39000 nM | Kd [3, 7]: 171 nM | Kd [4, 7]: 1480 nM | Kd [5, 7]: 251 nM

VLNRHAITMY
Kd [2, 7]: 94.4 nM | Kd [1, 7]: 966 nM | Kd [3, 7]: ≥ 70000 nM | Kd [4, 7]: ≥ 70000 nM | Kd [5, 7]: 16800 nM

EVTNPAVLR
Kd [4, 8]: 91.7 nM | Kd [5, 8]: 40 nM

MTLVPVLEK
Kd [2, 7]: 25.3 nM | Kd [1, 7]: 6.66 nM | Kd [3, 7]: 97.4 nM | Kd [4, 7]: 1330 nM | Kd [5, 7]: 5.78 nM

TTETPTWNR
Kd [4, 9]: 1.28 nM | Kd [5, 9]: 14.5 nM

ITDMINASLK
Kd [2, 7]: 151 nM | Kd [1, 7]: 81.2 nM | Kd [3, 7]: 10600 nM | Kd [4, 7]: ≥ 27300 nM | Kd [5, 7]: 76.3 nM

LIKFISDNKK
Kd [2, 7]: 142 nM | Kd [1, 7]: 1010 nM | Kd [3, 7]: 42.4 nM | Kd [4, 7]: ≥ 10000 nM | Kd [5, 7]: 47.2 nM

LTILDDNLY
Kd [2, 7]: 11200 nM | Kd [1, 7]: 3240 nM | Kd [3, 7]: ≥ 31700 nM | Kd [4, 7]: ≥ 69500 nM | Kd [5, 7]: 376 nM

DFDNLIGVR
Kd [2, 7]: ≥ 78000 nM | Kd [1, 7]: ≥ 77900 nM | Kd [3, 7]: 8030 nM | Kd [4, 7]: 87.1 nM | Kd [5, 7]: 10700 nM

GMLQGRGPLK
Kd [2, 6]: 6.17 nM | Kd [1, 6]: 37.9 nM

NVTEVKGYTK
Kd [5, 10]: 40.6 nM

HIVCSKTVK
Kd [2, 7]: 291 nM | Kd [1, 7]: 1590 nM | Kd [3, 7]: 623 nM | Kd [4, 7]: ≥ 32800 nM | Kd [5, 7]: 118 nM

AIGTSITQK
Kd [2, 8]: 9.33 nM | Kd [1, 8]: 60.9 nM

KFGKNHIHR
Kd [2, 7]: 12300 nM | Kd [1, 7]: ≥ 35800 nM | Kd [3, 7]: 4.47 nM | Kd [4, 7]: 5310 nM | Kd [5, 7]: ≥ 49100 nM

KSKSFNHVLK
Kd [2, 11]: 1.73 nM | Kd [1, 11]: 21.6 nM | Kd [3, 11]: 6.54 nM | Kd [4, 11]: ≥ 70000 nM | Kd [5, 11]: 3660 nM

TLDTMDDMKK
Kd [2, 7]: 762 nM | Kd [1, 7]: 287 nM | Kd [3, 7]: ≥ 30200 nM | Kd [4, 7]: ≥ 70000 nM | Kd [5, 7]: 2150 nM

YMWQVKTQR
Kd [3, 10]: 1.41 nM | Kd [4, 10]: 1.3 nM
